{"source": "the RNAGym collection of RNA variant scans (doi:10.1073/pnas.2313332121)", "parents": {"B1": {"name": "TPR 5TU (parent)", "chain": "GGAUCUUCUCGAUCUAACAAAAAAGACAAAUCUGCCACAAAGCUUGAGAGCAUCUUCGGAUGCAGAGGCGGCAGCCUUCGGUGGCGCGAUAGCGCCAACGUUCUCAACUAUGACACGCAAAACGCGUGCUCCGUUGAAUGGAGUUUAUCAUG"}}, "note": "Variants at the floor of the assay were thinned out.", "data": [{"variants_of": "B1", "assay": "polymerase ribozyme fitness, log enrichment relative to wild type (log ratio); higher = more active; in vitro selection for triplet polymerase activity", "summary_of_the_method": "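Fitness measures genotype enrichment against wild-type enrichment on a logarithmic scale, with inverse-variance-weighted averaging of replicates. The logarithm is base 2, and genotypes were kept only with ≥10 input reads and ≥1 read per output in Illumina sequencing. The sequenced libraries came from one triplicate in vitro selection round, including frozen incubation at −7 °C, of PCR-built, transcribed mutant libraries of each subunit of a heterodimeric triplet polymerase ribozyme.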", "values": [{"variant": "GGAUCUUCUCGAUCUAAUAAAAAAGACAAAUCUGUCACAAAGCUUGAGAGCAUCUUCUGAUGCAGAGGCGGCAGCCUUCCGUGGUGCGAUAGCGCCAACGUUCUCAACUAUGACACGCAAAACGCGUGCUCCGUUGAAUGGAGUUUAUCAUG", "polymerase ribozyme fitness (log ratio)": "≤ -4.2"}, {"variant": "GGAUCUUCUCGAUCUAAUAAAAAAGACUAAUCUGCCAAAAAGCUUGCGAGCAUCUUCGGAUGCAGAGGCGGCAGCCUUCGGUGGAGCGAUAGCGCCAACGUUCUCAACUAUGACACGCAAAACGCGUGCUCCGUUGAAUGGAGUCUAUCAUG", "polymerase ribozyme fitness (log ratio)": "≤ -4.2"}, {"variant": "GGAUCUUCUCGAUCUAAUAAAAAAGACAAAUCUGCCACAAAGCUUGAGAGCAUCUUCGGAUGCAGAGGCGGCAGCAUUCGGUGGCGCGAUAGCGUCAAAGGUCUCAUCUAUGACACGCAAAACGCGUGCUCCGUUGAAUGGAGUUUAUGAUG", "polymerase ribozyme fitness (log ratio)": "≤ -4.2"}, {"variant": "GGAUCUUCUCGAUCUAAUAAAAAAGACAAAUCUGCCACAAAGCUUGAGAGCAUCUUAGGAUGCAGAGGCGGCAGCCUUCGGUGGCGCGAUAGCGCCAACGUUCUCAACUAUGACCCGCAAAACGCGUGCUCCGUUGAAUGGAUUUUAACAUG", "polymerase ribozyme fitness (log ratio)": "≤ -4.2"}, {"variant": "GGAUCUUCUCGAUCUAAUAAAAAAGACAAAUCUGCCACAAAGCUUGAGAGCAUCUUCGGAUGCAGAGGCGGCAGCCUUCGGUGGCGCGAUAGCGCCAACGUUCUCAACUAUGACACGCAAUACGCGUGCUCCGUUGAAUGGAGUUUAUCAUG", "polymerase ribozyme fitness (log ratio)": -1.1}, {"variant": "GGAUCUUCUCGAUCUAAUAAAAAAGACAAAUCUGCCACAAAGCUUGAGAGCAUCUUCGGAUGCAGAGGCGGCAGCAUUCGGUGGCGCGAUAGCGCCAACGUUCUCAACUAUGACACGCAAAACGCGGGCUCCGUUGCAUGGAGUUUAUCAUG", "polymerase ribozyme fitness (log ratio)": "≤ -4.2"}, {"variant": "GGAUCUUCUCGAUCUAAUAAAAAAGACAAAUCUGCCUCAAAGCUUGAGAGCAUCUUCGGAUGCAGAGGCGGCAGCCUUCGGUAGCGUGAGAGCGCCACCGUUCUCAACUAUGACAAGCAAAACGCGUGCUCCUUUGCAUGGAGUUUAUCAUG", "polymerase ribozyme fitness (log ratio)": "≤ -4.2"}, {"variant": "GGAUCUUCUCGAUCUAAUAAAAUAGUCAAUUCUGCCACAAAGCUUGAGAGCAUCUUCGGAUGCAGAGGCGGCAGCCUUCGGUGGCGUGAUAGCGCGAACGUUCUCAAUUAUGACACGCAAAACGCGUGCUCCGUUAAAUGGAGUUUAUCAUG", "polymerase ribozyme fitness (log ratio)": "≤ -4.2"}, {"variant": "GGAUCUUCUCGAUCUAAUAAAAAAGACAAAUUUGCCCCAAAGCUUGAGAGCAUAUUCGGAUGCAGAGGAUGCAGCCUUCGGUGGCGCGAUAGCGCCUACGUUCUCAACUAUGACACGCAAAACGCGUGCUCCGUUGACUGGAGUUUAUAAUG", "polymerase ribozyme fitness (log ratio)": "≤ -4.2"}, {"variant": "GGAUCUUCUCGAUCUAAUAAAAAAGACAAAUCUGCCACAGAGCUUGAGAGCAUCUUCGGAUGCAGAGGCGGCAGCCUUCGGUGGCGCGAUAGCGCCAACGUUCUCAACUAUGACACGCAAAACGCGUGCUCCGUUGAAUGGAGUUUAUCAUG", "polymerase ribozyme fitness (log ratio)": -2.32}, {"variant": "GGAUCUUCUCGAUCUAAUAAAAAAGACCAAUCUGCCACAAAGCUUGAGAGCAUCUUCGGAUGCAGAGGCGGCAGCCUUCGGUGGCGGGAUAGCGCCAACGUUCUCAACUAUGACACGCAAAACUCGUGCUCCGUUGAAGGGAGUUGAUCAUG", "polymerase ribozyme fitness (log ratio)": "≤ -4.2"}, {"variant": "GGAUCUUCUCGAUCUAAUAAAAAAGGCAAAUCUGCCACAAAGCUUGAGAGCAUCUUCAGAUGCAGAGGCGGCAGCCUUCGGUGGCGAGAUAGCGCCUACGUUCUCAACUAUGACACGCAAAACGCGUGCUCCAUUGAAUGGAGUUUAUCAUG", "polymerase ribozyme fitness (log ratio)": "≤ -4.2"}, {"variant": "GGAUCUUCUCGAUCUAAUAAUAAAGACAAAUCUGCCACAAAACUUGAGAGCAUCUUCCGAUGCAGAGGCGGCAGCCUUCGGUGGCGCGAUAGCGUCAACGUUCUCAACUAUGACAUGCAAAACGCGUGCUCCGUUGAAUGGAGUCUAUCAUG", "polymerase ribozyme fitness (log ratio)": "≤ -4.2"}, {"variant": "GGAUCUUCUCGAUCUAAUAACAAAGACAAAUCUGCCACAAACCUUGAGAGCAUCUUCGGAUGCAGAGGCGGCAGCCUUCGGUGGCGCGAUAGUGCCAACGUUCUCAACUAUGACACGCAAAACGCGUGCUCCGUUGAAUGGAGUUUAUCAUG", "polymerase ribozyme fitness (log ratio)": "≤ -4.2"}, {"variant": "GGAUCUUCUCGAUCUAAUAAAAAAGACAAAUCUGCCACAGAGCUUGAGAGCAUCUUGGGAUGCAGAGGCGGCAGCCUUCGGUGGCGCGAUAGCGUCAACGUUCUCAACUAUGACACGCAAAACGCGUGCUCCGUUGAAUGGAGUUUAUCAUG", "polymerase ribozyme fitness (log ratio)": -3.91}, {"variant": "GGAUCUUCUCGAUCUAAUAAAAAAGACAACUUUGCCACUAAGCUUGAGCGCAGCUUCGGAUGCAGAGGCGGCAGCCUUCGGUGGCGCGAUAGGGCUAACGUUCUCAACUAUGACACGCAAAACGCGGGCUCCGUUGAAGUGAGUUUCUCAAG", "polymerase ribozyme fitness (log ratio)": "≤ -4.2"}, {"variant": "GGAUCUUCUCGAUCUAAUAAAAAAGACAAAUCUGCCACAAAGCUUGCGAGCAUCUUCGGAUGCAGAGGCGGCAGCCUUGGGUGGCGCAAUCGCGCCAACGUUCUCAACUAUGACACGCAAUACGCGUGCUCCGUUGAAUGGAGUUUAGCAUG", "polymerase ribozyme fitness (log ratio)": "≤ -4.2"}, {"variant": "GGAUCUUCUCGAUCUAAUAAAAAAGACAAAUCUGCCACAAAGCUUGAGAGCGUCUUCGGAUGCAGAGGCGGCAGCCUUCGGUCGCGCGAUAGCGCCAACGUUCUCAACUAUGACACGCAAAACGCGUGCUCCGUUGAAUGGAGUUGAUCAUG", "polymerase ribozyme fitness (log ratio)": -2.39}, {"variant": "GGAUCUUCUCGAUCUAAUAAAAAAGACAAAUCUGCCACAAAGCUUGAGAGCAUGUUCGAAUGCAGAGGCGGCAGCCUUCGGUGGCGCGAUAGAGCCAACGUUCUCAACUAUGACACGCAAAACGCGUGCUCCGUUUAAUGGAGUUUAUCAUG", "polymerase ribozyme fitness (log ratio)": "≤ -4.2"}]}]}
